# Measured values reported in paper PMC6895266, “Zika virus NS3 is a canonical RNA helicase stimulated by NS5 RNA polymerase”.
# B1: Cy3-ssRNA 16-mer (ssRNA)
# RNA: GCGUCUUUACGGUGCU
# What was measured:
# [1] = biological target: ZIKV NS5, purified recombinant (UniProt A0A024B7W1); test: co-immunoprecipitation (IP Myc) with purified proteins, western blot quantification; settings: parent: est. 1.0; read off a plot
# [2] = biological target: NS3F (full-length NS3) WT (Zika virus, UniProt A0A2D0WX26 1504-2119); test: fluorescence polarization; 5 mM MgCl2, no ATP; settings: protein: recombinant; tags: His; Myc (anti-myc blot); label: Cy3 (printed before the 5' end); single strand
molecule,measurement,setting,value
"ZIKV full-length NS3 (NS3F, residues 2-617), purified recombinant N569A; E573A",ratio to parent,[1],0.16
B1,Kd,[2],0.099 ± 0.007 µM
